Entries after “also recorded” stand apart in the source; their conditions may differ. No end group written: not given here.
Legend:
[1] = oral administration; cited from earlier work
[2] = in words; cited from earlier work
[3] = in vivo; cited from earlier work
Mad2 [4] = biological target: T1, Mad2 (Homo sapiens, UniProt Q13257); assay: Tryptophan fluorescence titration of Mad2 with peptide; assay type: binding; set-up: made in house; details: addition of peptide to saturation
Method: Binding affinity between Mad2 and Cdc20P1 was determined. Two tryptophan residues are located in the proximity of the C-terminal tail of Mad2 that is involved in binding to Cdc20. Thus, binding of Cdc20P1 may affect the tryptophan fluorescence of Mad2. The intensity of tryptophan fluorescence of Mad2 was indeed reduced by 70% upon the addition of Cdc20P1 to saturation. […] This is consistent with the fact that binding of Cdc20P1 to Mad2 occurs with an intermediate exchange rate on the NMR time scale. The relative low affinity of Cdc20P1 toward Mad2 may also be the cause of the slow aggregation phenomenon of the Mad2-Cdc20P1 complex. Thus, Mad2 ligands with higher affinity for Mad2 are required for structural studies.

Mad2 [5] = biological target: T1, Mad2; assay: 1H-15N HSQC NMR binding and competition on 15N-labeled Mad2; set-up: made in house; details: for binding to Mad2: change of the HSQC spectrum of Mad2: addition of peptide to 15N-labeled Mad2; for relative affinity toward Mad2 by competition: two peptides added to Mad2, HSQC spectrum
Method: To determine whether MBP1 and Cdc20 bind to the same site on Mad2. Mad2 was pre-incubated with an excess amount of Cdc20P1. MBP1 was then added to the pre-formed Mad2-Cdc20P1 complex. HSQC spectra were taken before and after the addition of MBP1. Prior to the addition of MBP1, Mad2 formed a complex with Cdc20P1 as indicated by the HSQC spectrum. After the addition of MBP1, the HSQC spectrum of the resulting sample looked identical to that of the Mad2-MBP1 complex. Therefore, MBP1 effectively displaced Cdc20P1 away from Mad2 and formed a complex with Mad2 in the presence of Cdc20P1. […] However, it is also conceivable that MBP1 affects the binding of Cdc20P1 to Mad2 in an allosteric fashion.
The relative affinity of Mad2-MBP2 was compared to Mad2-Cdc20P1 and Mad2-MBP1. […] However, when both MBP1 and MBP2 were added to Mad2, the HSQC spectrum of the resulting sample contained two sets of signals of roughly equal intensity: one set of signals belonged to Mad2-MBP1 while the other set was from Mad2-MBP2. […] Furthermore, the exchange between these two bound forms of Mad2 occurs with a rate that is slow on the NMR time scale.

Mad2 [6] = biological target: T1, Mad2; assay: Aggregation of Mad2-peptide complex over time (HSQC after incubation at 30° C.); set-up: made in house; details: incubation at 30° C. / extended periods of time
Method: To confirm if the complex aggregated over time, an HSQC spectrum was acquired on a freshly prepared ^15N-Mad2-Cdc20P1 sample. This sample was then incubated at 30° C. (the temperature for NMR data acquisition) for 48 hours and another HSQC was acquired.

[7] = oral tablet; cited from earlier work
Mad2 [8] = biological target: T1, Mad2; assay: ELISA-type assay of phage display clones on Mad2; assay type: binding; set-up: made in house; details: phage clone on Mad2
Excerpt: Phage display library with Mad2 was screened and several clones were sequenced and analyzed using ELISA-type assays.
By coincidence, the MBP1 sequence was isolated again and the MBP1 phage clone gave an ELISA reading of 0.62 (OD at 410 nm). […] The peptides with higher ELISA readings than MBP1 are synthesized. As these peptides, including MBP1, contain tryptophan in their sequences, tryptophan fluorescence assay cannot be used to measure the affinities of these peptides toward Mad2. Alternative assays are developed and used.

[9] = cited from earlier work
Mad2 [10] = biological target: T1, Mad2; assay: In vitro APC ubiquitination assay (Mad2 inhibition of APC^Cdc20, cyclin B1 substrate); assay type: biochemical; details: peptide at 100 μM
Excerpt: To determine whether binding of MBP1 affects the association of Mad2 with the intact Cdc20, the inventors performed an in vitro APC ubiquitination assay. In this assay, a Myc-epitope tagged N-terminal fragment of human cyclin B1 was used as the substrate. Purified recombinant human E1, UbcH10 (E2), ATP, and ubiquitin were also included (FIG. 3A). In the presence of active APC (E3), ubiquitin was ligated to the lysine side chains of cyclin B1, forming cyclin-ubiquitin conjugates with isopeptide linkages. The reaction mixture was then analyzed by SDS-PAGE followed by immuno-blotting with an anti-Myc antibody. The appearance and the intensity of the higher molecular weight bands were then used as the criteria for the activity of APC.
Addition of the APC activator, Cdc20, greatly stimulated the activity of APC. […] Therefore, MBP1 can block the biochemical function of Mad2 in vitro.

HeLa cells = assay: Mitotic arrest by GFP-Mad2 overexpression in HeLa cells; assay type: cell-based; details: co-transfection of plasmid encoding the peptide; cell shape, DNA-staining, FACS
Excerpt: Overexpression of Mad2 in HeLa cells causes a prolonged mitotic arrest because Mad2 at elevated levels inhibits APCCdc20 in these cells in the absence of spindle damage. […] The cells round up when they undergo mitosis while the interphase cells are flat. […] The cell cycle status of the transfected cells was also confirmed by DNA-staining and by FACS analysis.

[11] = biological target: T2, Mad2 protein (mitotic checkpoint protein Mad2, purified recombinant) (UniProt Q13257 1-205); assay: tryptophan fluorescence titration of Mad2 with Cdc20P1
T2 construct: also called 15N-Mad2; free Mad2
T2 sequence (Q13257 whole entry): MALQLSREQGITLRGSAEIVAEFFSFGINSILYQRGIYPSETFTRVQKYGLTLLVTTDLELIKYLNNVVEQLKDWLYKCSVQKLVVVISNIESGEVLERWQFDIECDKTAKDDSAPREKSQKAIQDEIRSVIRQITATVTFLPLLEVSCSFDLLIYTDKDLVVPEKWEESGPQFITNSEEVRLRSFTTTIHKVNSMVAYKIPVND

T1 sequence (Q13257 whole entry): as above

For `N[C@@H](Cc1ccc(N(CCCl)CCCl)cc1)C(=O)O` [Melphalan, 4-[bis(2-chloroethyl)amino]-L-phenylalanine], the “fraction of patients with multiple myeloma showing a favorable response” value [1] is listed as “one third to one half” and the solubility in water [2] is listed as “insoluble in water”.

For `O=NN(CCCl)C(=O)NCCCl` [Carmustine, 1,3 bis (2-chloroethyl)-1-nitrosourea], the solubility in water [2] is given as “poorly soluble in water”.

In the case of `O.O=P1(N(CCCl)CCCl)NCCCO1` (stereo not shown) [Cyclophosphamide, 2H-1,3,2-Oxazaphosphorin-2-amine, N,N-bis(2-chloroethyl)tetrahydro-, 2-oxide, monohydrate], the “stability in the gastrointestinal tract” value [3] is listed as “stable in the gastrointestinal tract”.

In the case of DVEEAKILRLSGKP [Cdc20P1], the “reduction of intensity of tryptophan fluorescence of Mad2” value (Mad2 [4]) is reported as 70%.

In the case of “MBP2: Mad2-binding peptide from phage display sharing strong sequence similarity with Cdc20P1, no tryptophans; probably DARIIKLPVPKP (SEQ ID NO:3)”, the “binding to Mad2: change of the HSQC spectrum of Mad2” value (Mad2 [5]) is reported as “induced dramatic chemical shift changes of the majority of Mad2 signals”, the “relative affinity toward Mad2 by competition” value (Mad2 [5]) is reported as “binds to Mad2 with a higher affinity than Cdc20P1; also recorded: MBP1 and MBP2 bind to Mad2 with very similar affinities” and the “aggregation of the Mad2-peptide complex” value (Mad2 [6]) is reported as “did not form high molecular weight aggregates”.

For `O=C(O)CCCc1ccc(N(CCCl)CCCl)cc1` [Chlorambucil, 4-[bis(2-chlorethyl)amino] benzenebutanoic acid], the “absorption from the gastrointestinal tract” value [7] is given as “rapidly and completely absorbed from the gastrointestinal tract”.

Molecule GWWHIPSPVLRP [clone 11] has an ELISA reading (Mad2 [8]) of 1.37 OD at 410 nm.

In the case of `O=NN(CCCl)C(=O)NC1CCCCC1` [Lomustine, 1-(2-chloro-ethyl)-3-cyclohexyl-1 nitrosourea], the “tissue levels versus plasma levels” value ([9]; 15 minutes after intravenous administration) is given as “comparable to plasma levels” and the “radioactivity excreted in the form of degradation products” value ([9]; within 24 hours, oral radioactive lomustine about 30 mg/m^2 to 100 mg/m^2) is given as “about half”.

In the case of “MBP1: 12-residue Mad2-binding peptide identified by phage display, contains tryptophan; probably SWYSYPPPQRAV (SEQ ID NO:2)”, the “effect on the ability of Mad2 to inhibit the ubiquitination activity of APC^Cdc20” value (Mad2 [10]) is reported as “blocked the ability of Mad2 to inhibit APC^Cdc20; also recorded: prevented Mad2 from inhibiting APCCdc20”, the “effect on mitotic arrest caused by GFP-Mad2 overexpression” value (HeLa cells) is reported as “counteracted the action of Mad2; also recorded: did not arrest in mitosis” and the “binding to Mad2: change of the HSQC spectrum of Mad2” value (Mad2 [5]) is reported as “caused dramatic chemical shift changes of the majority of signals”. The “relative affinity toward Mad2 by competition” value (Mad2 [5]) was “affinity of MBP1 toward Mad2 is higher than that of Cdc20P1; also recorded: MBP1 and MBP2 bind to Mad2 with very similar affinities”, the “aggregation of the Mad2-peptide complex” value (Mad2 [6]) was “stable for extended periods of time and did not aggregate” and the ELISA reading (Mad2 [8]) was 0.62 OD at 410 nm.

B1: Cdc20P1 (14-amino acid peptide corresponding to residues 124-137 of Cdc20) (peptide, UniProt Q12834 124-137, looked up)
peptide: DVEEAKILRLSGKP
notes: also called Cdc20P1 peptide; 15N-Cdc20P1
For B1, the Kd [11] was 3.6 µM.

— patent publication US20030083261A1, “Class of 12mer peptides that inhibit the function of the mitotic check point protein Mad2” (priority 2001, published 2003)
